First the molecules themselves.
B1: F229M: single mutant F229M of N. polysaccharea amylosucrase (protein)
chain: SPNSQYLKTRILDIYTPEQRAGIEKSEDWRQFSRRMDTHFPKLMNELDSVYGNNEALLPMLEMLLAQAWQSYSQRNSSLKDIDIARENNPDWILSNKQVGGVCYVDLFAGDLKGLKDKIPYFQELGLTYLHLMPLFKCPEGKSDGGYAVSSYRDVNPALGTIGDLREVIAALHEAGISAVVDFIFNHTSNEHEWAQRCAAGDPLFDNFYYIFPDRRMPDQYDRTLREIMPDQHPGGFSQLEDGRWVWTTFNSFQWDLNYSNPWVFRAMAGEMLFLANLGVDILRMDAVAFIWKQMGTSCENLPQAHALIRAFNAVMRIAAPAVFFKSEAIVHPDQVVQYIGQDECQIGYNPLQMALLWNTLATREVNLLHQALTYRHNLPEHTAWVNYVRSHDDIGWTFADEDAAYLGISGYDHRQFLNRFFVNRFDGSFARGVPFQYNPSTGDCRVSGTAAALVGLAQDDPHAVDRIKLLYSIALSTGGLPLIYLGDEVGTLNDDDWSQDSNKSDDSRWAHRPRYNEALYAQRNDPSTAAGQIYQDLRHMIAVRQSNPRFDGGRLVTFNTNNKHIIGYIRNNALLAFGNFSEYPQTVTAHTLQAMPFKAHDLIGGKTVSLNQDLTLQPYQVMWLEIA
B2: I228V-F229L: double mutant I228V, F229L of N. polysaccharea amylosucrase (protein)
chain: B1 chain with I228V, M229L
B3: I228V-F229M: double mutant I228V, F229M of N. polysaccharea amylosucrase (protein)
chain: B1 chain with I228V
B4: F290G: single mutant F290G of N. polysaccharea amylosucrase (protein)
chain: B1 chain with M229F, F290G
B5: I228V-F290R: double mutant I228V, F290R of N. polysaccharea amylosucrase (protein)
chain: B1 chain with I228V, M229F, F290R
B6: I228T-F290H: double mutant I228T, F290H of N. polysaccharea amylosucrase (protein)
chain: B1 chain with I228T, M229F, F290H
B7: F229L: single mutant F229L of N. polysaccharea amylosucrase (protein)
chain: B1 chain with M229L
B8: I228C-F229L: double mutant I228C, F229L of N. polysaccharea amylosucrase (protein)
chain: B1 chain with I228C, M229L
B9: F290I: single mutant F290I of N. polysaccharea amylosucrase (protein)
chain: B1 chain with M229F, F290I
B10: A289H-F290S: double mutant A289H, F290S of N. polysaccharea amylosucrase (protein)
chain: B1 chain with M229F, A289H, F290S
B11: I228K-F290W: double mutant I228K, F290W of N. polysaccharea amylosucrase (protein)
chain: B1 chain with I228K, M229F, F290W
B12: I228K-F290L: double mutant I228K, F290L of N. polysaccharea amylosucrase (protein)
chain: B1 chain with I228K, M229F, F290L
B13: I228T-F290K: double mutant I228T, F290K of N. polysaccharea amylosucrase (protein)
chain: B1 chain with I228T, M229F, F290K
B14: I228M-F229M: double mutant I228M, F229M of N. polysaccharea amylosucrase (protein)
chain: B1 chain with I228M
B15: I228P-F290C: double mutant I228P, F290C of N. polysaccharea amylosucrase (protein)
chain: B1 chain with I228P, M229F, F290C
B16: I228V-F290H: double mutant I228V, F290H of N. polysaccharea amylosucrase (protein)
chain: B1 chain with I228V, M229F, F290H
B17: F290H: single mutant F290H of N. polysaccharea amylosucrase (protein)
chain: B1 chain with M229F, F290H
B18: I228L-F229L: double mutant I228L, F229L of N. polysaccharea amylosucrase (protein)
chain: B1 chain with I228L, M229L
B19: A289T-F290H: double mutant A289T, F290H of N. polysaccharea amylosucrase (protein)
chain: B1 chain with M229F, A289T, F290H
B20: F290L: single mutant F290L of N. polysaccharea amylosucrase (protein)
chain: B1 chain with M229F, F290L

Changes are numbered by the printed parent chain. Names and notes keep the numbering of the source.

A short description of one experiment: HPLC screening of double-mutant libraries for variants able to glucosylate D-GlcpNAc. Format: biochemical. The following applies: α-D-Glcp-(1→4)-α-D-GlcpNAc (ED) from sucrose and D-GlcpNAc, microplate format. The method, then:
The protocol was established to enable the rapid identification of clones for which D-GlcpNAc glucosylation was improved. To obtain higher amounts of enzymes and facilitate detection of glucosylated compounds upon HPLC screening, mutants were produced in 96-DeepWell Format plates. Storage microplates containing monomutants were thawed and replicated to inoculate a starter culture in 96-well microplates containing, in each well, 150 μL LB medium supplemented with ampicillin (100 μg/mL). After growth for 24 h at 30° C. under agitation (200 rpm), plates were duplicated into 96-Deep Well plates containing, in each well, 1.1 mL LB medium supplemented with ampicillin (100 μg/mL) and IPTG (1 mM) to induce GST-AS expression. Cultures were then grown for 24 h at 30° C. under agitation (200 rpm). Plates were centrifuged (20 min, 3000 g, 4° C.) and the supernatant was removed. The cell pellet was resuspended in 200 μL of lysozyme (0.5 mg/mL), followed by freezing at −80° C. for 8 to 12 h. After thawing at room temperature, 100 μL of sucrose and 100 μL of acceptor (each at a final concentration of 73 mM) were added to each well. Enzymatic reaction was incubated at 30° C. during 24 h under agitation. The DeepWell plates were then centrifuged (20 min, 3000 g, 4° C.) and 300 μL of the supernatant was transferred to a filter micro-plate (PVDF 0.2 μm) to be clarified. Supernatant filtration was carried out by centrifugation of the filter micro-plate (5 min, 2000 g, 4° C.) into a novel microplate for screening.
The method for the expression of the mutant libraries is described in Example 1-1.
Acceptor reaction products were analyzed by HPLC analysis using a C18-AQ column (Bischoff C18, 125×4 mm, 3 μm) kept at room temperature and eluted with 0.6 mL/min of ultra-pure water to detect α-D-Glcp-(1→4)-α-D-GlcpNAc formation (analysis time: 7 min). To evaluate the efficiency of the glucosylation reaction, it was carried out complementary HPLC analyses with a Biorad HPX-87K Carbohydrate Analysis column (maintained at 65° C., and eluted at a flow rate of 0.6 mL/min with ultra-pure water). By this way, it was possible to measure sucrose consumption by RI detection and concomitant α-D-Glcp-(1-4)-α-D-GlcpNAc formation by UV220 nm and determine mutant ability to synthesize the desired disaccharide α-D-Glcp-(1→4)-α-D-GlcpNAc (i.e., % Glucosyl units transferred onto acceptor derivatives=[Glucosyl units transferred onto acceptor derivatives]/[Glucosyl units transferred from initial sucrose]×100)
All clones producing sucrose-utilizing variants were then picked and cultured in 96-well microplates. Following cell lysis, the acceptor reaction in the presence of D-GlcpNAc was then carried out in microplate format. HLPC analysis time for each clone was reduced to 7 min for detection of α-D-Glcp-(1→4)-α-D-GlcpNAc. When disaccharide formation was detected, complementary analyses were performed to determine sucrose consumption and disaccharide formation with more accuracy in order to calculate the glucosylation yield.
B1: the “Glusosylation Yield to synthesize ED” value is on record as 79%. The same measure, in the same setting: with B2 the figure was 56%. For B3, the “Glusosylation Yield to synthesize ED” value was 29%. Consider B4, for which the “Glusosylation Yield to synthesize ED” value was 53%. On the same count and under the same terms, with B5 the figure was 25%; with B6, 56%. B7: the “Glusosylation Yield to synthesize ED” value was 49%. The same measure, in the same setting: with B8 the figure was 78%.

As for B9, the “Glusosylation Yield to synthesize ED” value is given as 16%. As for B10, the “Glusosylation Yield to synthesize ED” value is on record as 40%. Still for that read-out and setting: with B11 the figure was 50%; with B12, 47%; with B13, 72%. As to B14, the “Glusosylation Yield to synthesize ED” value is given as 28%. For B15, the “Glusosylation Yield to synthesize ED” value is 22%. As to B16, the “Glusosylation Yield to synthesize ED” value was determined as 61%.

Turning to B17, the “Glusosylation Yield to synthesize ED” value is listed as 46%. On the same count and under the same terms, with B18 the figure was 35%; with B19, 40%.

Staying with this experiment, now noted: α-D-Glcp-(1→4)-α-D-GlcpNAc (ED) from sucrose and D-GlcpNAc, microplate format, listed as DM4_P2_A2.
Take B20: the “Glusosylation Yield to synthesize ED” value came to 55%.

Staying with this experiment, now noted: α-D-Glcp-(1→4)-α-D-GlcpNAc (ED) from sucrose and D-GlcpNAc, microplate format, listed as DM4_P2_G9.
Consider B20, for which the “Glusosylation Yield to synthesize ED” value is given as 20%.

Source of the values: patent US20110086767A1, “MUTANTS OF GLYCOSIDE HYDROLASES AND USES THEREOF FOR SYNTHESIZING COMPLEX OLIGOSACCHARIDES AND DISACCHARIDE INTERMEDIATES” (Institut Pasteur, priority 2008, published 2011).
